Here are results for two molecules from paper PMC11838735, “Structural basis of collagen glucosyltransferase function and its serendipitous role in kojibiose synthesis” (Research Square, 2025).

Data set [1] concerns the target human PLOD2b GLT-AC truncation (PLOD2b-GA) (human). The data set can be described thus: SEC-MALS; the paper calls it SEC-DLS (size exclusion chromatography with dynamic light scattering); Superdex 200 10/300, miniDAWN TREOS and Optilab T-rEX detectors, 20 mM Tris pH 8, 200 mM NaCl, 3 mg ml^-1, 150 μl injected, 0.5 ml min^-1; molar mass across the peak; each protein analyzed once.

Data set [2] deals with the molecule itself. Described as above.

For the molecule “human PLOD2b GLT-AC truncation (PLOD2b-GA) (domain or fragment)”, the stoichiometry N (in general, a count of units in the complex or per binding partner) in data set [1] stood at 2.

B1: mimiviral collagen glucosyltransferase R699, wild type (pET28 construct) (enzyme)
chain: EQSNNDDNLLVLGIGISVHKTDGVLRFEKYCQAHNLQYMIVGEGKKWNGGNLESEAGGGQKINELLIALESIKDNKLIVVCDTYDLIPLSGPEEILRKYRFLTPDNKVVFSSELYCWPDASLVERYPKVDTKYKYLNSGAFMGYRDDIYEMIKNGVKDRDDDQLFFSIKFIETDKIVLDYKCELFQAMYRCNSDLVVHKNRIFNGYTNSYPVFAHGNGPAKKLLNHMEGYFMTEPIDGSSNTINTFKLDNEPKVFFALYVDSNDLSALKQFLGKVASIQYGNKVIYLYDRSDNEQNRKLIQISYPNYHTGVTKYVFDDFKKSDAQFYFLLEQNCIITKKDILHELIMQVKDNHRVISPMIGYEQNSTRTNFWGDIEDGYYKRSENYLDLAKHKVRGLWNVPYVYGVILMHESVVRNWDLSMVKYNDKDMDLCFSLRKHTIFMYMINNNNYGYMV
notes: R699 protein of Acanthamoeba polyphaga mimivirus, collagen galactosylhydroxylysyl glucosyltransferase; gene synthesized by Genscript; The vector has a PreScission site in place of the thrombin site, and no cleavage is described for this construct; also called R699WT; mimiviral R699
As for B1, the “stoichiometry N” value in data set [2] amounted to 2.
